Partitioning (client fluorescence inside/outside ZO1 droplets) data for three substances are collected here from paper doi:10.1101/589580.

The test deals with full-length ZO1 with C-terminal mEGFP (UniProt Q07157). Kind of test: client partitioning into phase-separated droplets.
Sequence of full-length ZO1 with C-terminal mEGFP (Q07157 whole entry, the tested form may be a part): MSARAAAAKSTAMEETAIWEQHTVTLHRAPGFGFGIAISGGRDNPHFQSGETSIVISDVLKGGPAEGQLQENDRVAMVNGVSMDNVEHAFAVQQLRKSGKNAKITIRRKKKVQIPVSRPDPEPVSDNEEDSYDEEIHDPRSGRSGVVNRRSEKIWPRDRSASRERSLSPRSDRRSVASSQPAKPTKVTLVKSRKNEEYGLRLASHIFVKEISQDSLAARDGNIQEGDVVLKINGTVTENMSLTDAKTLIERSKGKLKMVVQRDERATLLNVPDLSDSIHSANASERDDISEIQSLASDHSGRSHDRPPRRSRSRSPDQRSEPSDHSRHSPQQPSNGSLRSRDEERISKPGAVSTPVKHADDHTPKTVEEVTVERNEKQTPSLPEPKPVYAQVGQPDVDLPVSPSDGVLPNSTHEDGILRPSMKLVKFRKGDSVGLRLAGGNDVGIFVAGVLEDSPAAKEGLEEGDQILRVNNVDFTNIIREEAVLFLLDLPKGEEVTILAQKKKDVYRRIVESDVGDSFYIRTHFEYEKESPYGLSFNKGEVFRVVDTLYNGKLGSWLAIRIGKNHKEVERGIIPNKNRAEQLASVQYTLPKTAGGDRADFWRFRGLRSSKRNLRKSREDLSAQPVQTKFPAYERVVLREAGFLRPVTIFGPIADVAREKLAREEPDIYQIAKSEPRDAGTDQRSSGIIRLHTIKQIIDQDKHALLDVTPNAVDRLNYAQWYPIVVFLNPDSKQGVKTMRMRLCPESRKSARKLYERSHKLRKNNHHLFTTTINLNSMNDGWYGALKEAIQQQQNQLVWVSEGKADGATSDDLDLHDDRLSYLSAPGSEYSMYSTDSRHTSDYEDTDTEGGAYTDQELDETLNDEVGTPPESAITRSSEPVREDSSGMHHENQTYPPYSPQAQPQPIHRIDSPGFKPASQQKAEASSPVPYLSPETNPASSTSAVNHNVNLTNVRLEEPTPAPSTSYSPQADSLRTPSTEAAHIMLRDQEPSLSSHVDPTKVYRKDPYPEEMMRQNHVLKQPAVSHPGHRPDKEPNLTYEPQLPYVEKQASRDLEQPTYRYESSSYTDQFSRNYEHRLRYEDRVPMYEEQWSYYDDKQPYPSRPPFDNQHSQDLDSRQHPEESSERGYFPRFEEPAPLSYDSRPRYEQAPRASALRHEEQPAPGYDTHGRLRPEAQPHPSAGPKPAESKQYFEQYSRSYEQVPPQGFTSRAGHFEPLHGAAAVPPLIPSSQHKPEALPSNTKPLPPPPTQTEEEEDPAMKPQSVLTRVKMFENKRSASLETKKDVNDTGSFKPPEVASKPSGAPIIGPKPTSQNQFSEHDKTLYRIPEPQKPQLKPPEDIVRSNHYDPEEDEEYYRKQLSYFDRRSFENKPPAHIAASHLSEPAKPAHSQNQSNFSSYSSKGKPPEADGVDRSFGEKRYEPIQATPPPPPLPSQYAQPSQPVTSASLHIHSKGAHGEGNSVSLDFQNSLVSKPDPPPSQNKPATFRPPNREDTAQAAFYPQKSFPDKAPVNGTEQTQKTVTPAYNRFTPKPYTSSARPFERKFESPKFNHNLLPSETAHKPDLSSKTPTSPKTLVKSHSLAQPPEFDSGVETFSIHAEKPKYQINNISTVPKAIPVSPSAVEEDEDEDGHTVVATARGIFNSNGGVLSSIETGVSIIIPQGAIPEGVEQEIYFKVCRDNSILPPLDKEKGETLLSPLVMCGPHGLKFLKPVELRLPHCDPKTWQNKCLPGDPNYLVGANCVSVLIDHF
For the substance “C-terminal domain of nectin-1 (from UniProt Q15223 31-517) (domain or fragment)”, the partitioning (client fluorescence inside/outside ZO1 droplets) turned out to be 9 fold.

For “C-terminal domain of occludin (from UniProt Q16625 1-522) (domain or fragment)”, the partitioning (client fluorescence inside/outside ZO1 droplets) came to 21 fold.

For “monomeric actin (from UniProt P60709 1-375) (natural protein)”, the partitioning (client fluorescence inside/outside ZO1 droplets) was determined as 22 fold.
